Where “and” joins values, the source holds several entries; their conditions need not be identical. Equal entries are not always repeated.
Conditions: Escherichia coli (strain K12), pH 7, Potassium phosphate 50 mM, KCl 100 mM, reversible: yes

Sequence of Cold shock protein CspA wild type, P0A9X9 (P0A9X9 whole entry): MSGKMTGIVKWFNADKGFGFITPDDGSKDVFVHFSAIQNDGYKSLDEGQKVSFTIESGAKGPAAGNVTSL

Cold shock protein CspA wild type, P0A9X9
denaturant m value (10 °C, GdnHCl, Fluorescence): 1.7 kcal/mol/M and 2.4 kcal/mol/M and 2.1 kcal/mol/M
denaturant midpoint (higher = more stable) (10 °C, GdnHCl, Fluorescence): 1.8 M and 1.6 M
unfolding free energy (10 °C, GdnHCl, Fluorescence): 3.1 kcal/mol and 3.8 kcal/mol and 3.3 kcal/mol
denaturant m value (10 °C, Urea, Fluorescence): 0.59 kcal/mol/M and 0.66 kcal/mol/M and 0.64 kcal/mol/M
denaturant midpoint (higher = more stable) (10 °C, Urea, Fluorescence): 4.9 M and 5 M and 4.5 M
unfolding free energy (10 °C, Urea, Fluorescence): 2.9 kcal/mol and 3.3 kcal/mol and 2.8 kcal/mol
denaturant m value (25 °C, GdnHCl, CD): 1.7 kcal/mol/M and 2.9 kcal/mol/M and 2.1 kcal/mol/M
denaturant midpoint (higher = more stable) (25 °C, GdnHCl, CD): 1.5 M and 1.3 M and 1.6 M
unfolding free energy (25 °C, GdnHCl, CD): 2.4 kcal/mol and 3.7 kcal/mol and 3.3 kcal/mol
denaturant m value (25 °C, GdnHCl, Fluorescence): 2.2 kcal/mol/M and 2 kcal/mol/M
denaturant midpoint (higher = more stable) (25 °C, GdnHCl, Fluorescence): 1.4 M and 1.6 M
unfolding free energy (25 °C, GdnHCl, Fluorescence): 3.1 kcal/mol and 3.2 kcal/mol and 3 kcal/mol
denaturant m value (25 °C, Urea, CD): 0.6 kcal/mol/M and 0.7 kcal/mol/M
denaturant midpoint (higher = more stable) (25 °C, Urea, CD): 4 M and 4.5 M and 4.1 M
unfolding free energy (25 °C, Urea, CD): 2.6 kcal/mol and 3.1 kcal/mol
denaturant m value (25 °C, Urea, Fluorescence): 0.71 kcal/mol/M and 0.69 kcal/mol/M and 0.78 kcal/mol/M
denaturant midpoint (higher = more stable) (25 °C, Urea, Fluorescence): 4.2 M
unfolding free energy (25 °C, Urea, Fluorescence): 3 kcal/mol and 2.9 kcal/mol and 3.2 kcal/mol

Reference: FireProtDB (doi:10.1002/pro.5560070228)
